Test results as given in patent publication US11845793B2, “Anti-ROR1 antibodies” (NBE-THERAPEUTICS AG, dated 2023).

Target: T1, StrepII-tagged ROR1-extracellular domain (human, UniProt Q01973)
Experiment: SPR (Biacore T200), IgG from HEK293T supernatant captured by anti-human Fc, ROR1-strep as analyte, 1:1 model
Experimental: For initial determination of huR12 clone affinities and parental R12 using transient HEK293T supernatants, IgG expression vectors were transiently transfected into 293T cells and IgG titers in supernatants were quantified by ELISA. For SPR, supernatants were diluted to 1 µg/ml IgG with running buffer (HBS-EP+pH 7.4 (10 mM HEPES, 150 mM NaCl, 3 mM EDTA, 0.05% Tween® 20)) and captured for 200s with a flow of 30 µl/min. ROR1-strep was diluted in running buffer using 2-fold serial dilutions ranging from 20 nM to 2.5 nM. Association was measured at a flow of 30 µl/min for 120s, and dissociation was followed for 1000s. Capture levels ranged from 26.9 RU to 54.1 RU.

T1 sequence (Q01973 other isoform, or with tags, fused parts or gaps): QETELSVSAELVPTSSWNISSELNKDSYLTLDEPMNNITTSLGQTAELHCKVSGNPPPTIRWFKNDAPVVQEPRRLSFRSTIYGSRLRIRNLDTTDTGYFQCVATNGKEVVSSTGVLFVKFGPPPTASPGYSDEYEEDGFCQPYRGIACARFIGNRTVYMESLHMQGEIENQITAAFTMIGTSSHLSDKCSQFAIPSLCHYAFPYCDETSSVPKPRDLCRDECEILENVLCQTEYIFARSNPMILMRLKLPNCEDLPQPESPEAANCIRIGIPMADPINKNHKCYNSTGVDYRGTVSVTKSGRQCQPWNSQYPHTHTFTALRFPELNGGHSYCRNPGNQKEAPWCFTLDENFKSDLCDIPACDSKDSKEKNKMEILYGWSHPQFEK

Binder	Kd [nM]	koff [s⁻¹]	kon [M⁻¹ s⁻¹]
huR12_4, humanized from R12 (antibody, V domains shown) VH: QVQLVESGGELVQPGGSLTLSCKASGFDFSAYYMSWVRQAPGKGLEWIATIYPSSGKTYYAASVQGRFTISADNAKNTVYLQMNSLTAADTATYFCARDSYADDGALFNIWGKGTLVTVSS VL: QLVLTQSPSVSAALGSSAKITCTLSSAHKTDTIDWYQQLAGQAPRYLMYVQSDGSYEKRSGVPDRFSGSASGADRYLAISRVQADDEADYYCGADYIGGYVFGGGTQLTVLG	0.091	9.93e-05	1.09e+06
huR12_7, humanized from R12 (antibody, V domains shown) VH: QVQLVESGGELVQPGGSLTLSCKASGFDFSAYYMSWVRQAPGKGLEWIATIYPSSGKTYYAASVQGRFTISADNAKNTVSLQMNSLTAADTATYFCARDSYADDGALFNIWGKGTLVTVSS VL: QLVLTQSPSVSAALGSSAKITCTLSSAHKTDTIDWYQQLAGQAPRYLMYVQSDGSYEKRSGVPDRFSGSSSGADRYLIISSVQADDEADYYCGADYIGGYVFGGGTQLTVLG	0.11	0.000116	1.05e+06
huR12_16, humanized from R12 (antibody, V domains shown) VH: QVQLVESGGELVTPGGSLTLSCKASGFDFSAYYMSWVRQAPGKGLEWIASIYPSSGKTYYAAAVQGRFTISADNAKNTVYLQMNSLTAADTATYFCARDSYADDGALFNIWGQGTLVTVSS VL: QLVLTQSPSVSAALGSSAKITCTLSSAHKTDTIDWYQQLAGQAPRYLMYVQSDGSYEKRSGVPDRFSGSSSGADRYLIISSVQADDEADYYCGADYIGGYVFGGGTQLTVG	0.092	8.79e-05	960000

The next lines start with the values.

Kd [nM]	koff [s⁻¹]	kon [M⁻¹ s⁻¹]	Binder
0.084	9.65e-05	1.15e+06	huR12_11, humanized from R12 (antibody, V domains shown) VH: QVQLVESGGALVQPGGSLTLSCKASGFDFSAYYMSWVRQAPGKGLEWIATIYPSSGKTYYAASVQGRFTISADNAKNTVYLQMNSLTAADTATYFCARDSYADDGALFNIWGQGTLVTVSS VL: QLVLTQSPSVSAALGSSAKITCTLSSAHKTDTIDWYQQLAGQAPRYLMYVQSDGSYEKRSGVPDRFSGSSSGADRYLIISSVQADDEADYYCGADYIGGYVFGGGTQLTVG
1.03	0.000361	349000	Chimeric mAb R12 (antibody, V domains shown) VH: QEQLVESGGRLVTPGGSLTLSCKASGFDFSAYYMSWVRQAPGKGLEWIATIYPSSGKTYYATWVNGRFTISSDNAQNTVDLQMNSLTAADRATYFCARDSYADDGALFNIWGPGTLVTISS VL: ELVLTQSPSVSAALGSPAKITCTLSSAHKTDTIDWYQQLQGEAPRYLMQVQSDGSYTKRPGVPDRFSGSSSGADRYLIIPSVQADDEADYYCGADYIGGYVFGGGTQLTVT

Target: T1, StrepII-tagged ROR1-extracellular domain
Experiment: SPR (Biacore T200), purified mAb captured by anti-human Fc, ROR1-strep as analyte, 1:1 model

Binder	Kd [nM]	koff [s⁻¹]	kon [M⁻¹ s⁻¹]
hu2A2-D23, humanized from 2A2 (antibody, V domains shown) VH: QVQLVESGAEVKKPGASVKLSCKASGYTFSDYEMHWVRQAPGQRLEWMGAIDPETGGTAYNQKFKGRVTITVDKSASTAYMELSSLRSEDTAVYYCTGYYDYDSFTYWGPGTTVTVSS VL: DIVMTQSPSTLSASVGDRVTITCKASQNVDAAVAWYQQKPGTAPKLLIYSASNRYTGVPSRFSGSGSGTEFTLTISSLQSEDLADYFCQQYDIYPYTFGQGTKLEIK	8	0.0138	1.72e+06
hu2A2b-Q11, humanized from 2A2 (antibody, V domains shown) VH: EVQLVQSGAEVKKPGASVKVSCKASGYTFSDYEMHWVRQAPGQGLEWLGAIDPETGGTAYNQKFKGRVTMTGDTSISTAYMELSRLTSDDTAVYYCTGYYDYDSFTYWGQGTLVSVSS VL: DIQMTQSPSSLSTSVGDRVTITCKASQNVDAAVAWYQQKPGKAPKLLIYSASNRYTGVASRFSGSGSGTDFTFTISSLQSEDLADYFCQQYDIYPYTFGQGTKLEIK	9.9	0.0173	1.75e+06
rbQ12, humanized from R11 (antibody, V domains shown) VH: EVQLVESGGGLVQPGGSLRLSCAASGSDINDYPISWVRQAPGKGLEWVSFINSGGSTWYASWVKGRFTISRDNAKNSLYLQMNSLRADDTATYFCARGYSTYYGDFNIWGQGTMVTVSS VL: EIVMTQSPSSLSASVGDRVTITCQASQSIDSNLAWFQQKPGKAPNLLIYRASNLASGVPSRFSGSGSGTEFTLTISSLQREDAATYYCLGGVGNVSYRTSFGQGTKVEIK	14.2	0.0104	733000

More lines, now with the values ahead:

Kd [nM]	koff [s⁻¹]	kon [M⁻¹ s⁻¹]	Binder
10.9	0.0189	1.73e+06	hu2A2-D16, humanized from 2A2 (antibody, V domains shown) VH: EVQLVESGAEVKKPGASVKVSCKASGYTFSDYEMHWVRQAPGQGLEWVGAIDPETGGTAYNQKFKGRVTMTRDTSTSTVYMELSSLRSEDTAVYYCTGYYDYDSFTYWGQGTLVTVSS VL: DIQMTQSPSSLSASVGDRVTITCKASQNVDAAVAWYQQKPGKAPKLLIYSASNRYTGIPTRFSGSGSGTDFTLTISSLQSEDLADYFCQQYDIYPYTFGQGTKVEIK
3.4	0.00328	957000	chimeric mAb R11 (antibody, V domains shown) VH: QSVKESEGDLVTPAGNLTLTCTASGSDINDYPISWVRQAPGKGLEWIGFINSGGSTWYASWVKGRFTISRTSTTVDLKMTSLTTDDTATYFCARGYSTYYGDFNIWGPGTLVTISS VL: ELVMTQTPSSTSGAVGGTVTINCQASQSIDSNLAWFQQKPGQPPTLLIYRASNLASGVPSRFSGSRSGTEYTLTISGVQREDAATYYCLGGVGNVSYRTSFGGGTEVVVK
6.1	0.00498	821000	rbQ11, humanized from R11 (antibody, V domains shown) VH: EVQLVQSGGGLVQPGGSLRLSCAASGSDINDYPISWVRQAPGKGLEWVSFINSGGSTWYASWVKGRFTISRDNAKNSLYLQMNSLRDDDTATYFCARGYSTYYGDFNIWGQGTLVTVSS VL: DIVMTQSPSSLSASVGDRVTITCQASQSIDSNLAWFQQKPGKAPKSLIYRASNLASGVPSKFSGSGSGTDFTLTISSLQREDAATYYCLGGVGNVSYRTSFGGGTKVEIK
9	0.0071	785000	rbD4, humanized from R11 (antibody, V domains shown) VH: EVQLVESGGGLVQPGRSLRLSCTASGSDINDYPISWFRQAPGKGLEWVGFINSGGSTWYASWVKGRFTISRDDSKSIAYLQMNSLKTDDTATYFCARGYSTYYGDFNIWGQGTTVTVSS VL: DVVMTQSPSSLSASVGDRVTITCQASQSIDSNLAWFQQKPGKAPNLLIYRASNLASGVPSRFSGSGSGTEFTLTISSLQREDAATYYCLGGVGNVSYRTSFGQGTKVEIK
5.7	0.00968	1.69e+06	chimeric mAb 2A2 (antibody, V domains shown) VH: QVQLQQSGAELVRPGASVTLSCKASGYTFSDYEMHWVIQTPVHGLEWIGAIDPETGGTAYNQKFKGKAILTADKSSSTAYMELRSLTSEDSAVYYCTGYYDYDSFTYWGQGTLVTVSA VL: DIVMTQSQKIMSTTVGDRVSITCKASQNVDAAVAWYQQKPGQSPKLLIYSASNRYTGVPDRFTGSGSGTDFTLTISNMQSEDLADYFCQQYDIYPYTFGGGTKLEIK
